Assays:
AML blasts [1] = experiment: SCNP phospho-flow signaling nodes in AML PBMC (Example 2, Study No. 1); type: cell-based, human; details: for Mean Value of CRs: CR patients; for Mean Value of CRs / Mean Value of NRs: Study No. 1; for Mean Value of NRs: NR patients
How it was run: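 Thawed AML cells, Amine Aqua-stained, rested 2 h at 37° C. at 1.25×10^6 cells/ml, then stimulated 10 min at 37° C. (stimuli prepared at 5× final). Methanol-permeabilized, then stained 30 min at RT with optimized antibody cocktail for flow cytometry.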

AML blasts [2] = experiment: SCNP signaling and apoptosis nodes in AML BMMC (Example 4, Study No. 2); type: cell-based, human
[3] = tested on: elderly pts with untreated AML; details: cited from earlier work
[4] = Fold metric, Study No. 1, CRp patient included in NR group
[5] = Total Phospho metric, Study No. 1, CRp patient included in NR group
[6] = read-out p-Stat3, metric TotalPhospho
[7] = Study No.2, patients with Secondary AML
[8] = read-out p-CREB, metric TotalPhospho
[9] = read-out p-Stat1, metric TotalPhospho
[10] = Fold metric, all patients, Study No. 2
[11] = Study No.2, patients age 60 and older
[12] = Study No.2, patients less than 60 years old
[13] = TotalPhospho metric, all patients, Study No. 2

B1: G-CSF: granulocyte colony-stimulating factor (protein, UniProt P09919 31-207, looked up)
Granulocyte …: TPLGPASSLPQSFLLKCLEQVRKIQGDGAALQEKLVSECATYKLCHPEELVLLGHSLGIPWAPLSSCPSQALQLAGCLSQLHSGLFLYQGLLQALEGISPELGPTLDTLQLDVADFATTIWQQMEELGMAPALQPTQGAMPAFASAFQRRAGGVLVASHLQSFLEVSYRVLRHLAQP
- p-Stat5 Fold, Mean Value of CRs (AML blasts [1]; Fold = log2(MFI modulated) - log2(MFI unmodulated), 9 CRs, Study No.1): 0.47
- p-Stat5 Fold, Mean Value of NRs (AML blasts [1]; Fold = log2(MFI modulated) - log2(MFI unmodulated), 25 NRs, Study No.1): 1.13
- Mean Value of CRs, p-Stat3 (AML blasts [1]; [4]): 0.60
- Mean Value of CRs, p-Stat5 (AML blasts [1]; [4]): 0.33
- Mean Value of NRs, p-Stat3 (AML blasts [1]; [4]): 1.52
- Mean Value of NRs, p-Stat5 (AML blasts [1]; [4]): 1.15
- Mean Value of CRs, p-Stat3 (AML blasts [1]; [5]): 1.40
- Mean Value of NRs, p-Stat3 (AML blasts [1]; [5]): 2.74
- Mean Value of CRs (AML blasts [1]; [6]): 1.66
- Mean Value of NRs (AML blasts [1]; [6]): 2.70
- Mean Value of CRs (AML blasts [1]; read-out p-Stat5, metric Fold): 0.47
- Mean Value of NRs (AML blasts [1]; read-out p-Stat5, metric Fold): 1.13
- Mean Value of CRs, p-Stat1 Fold (AML blasts [2]; [7]): 0.00
- Mean Value of CRs, p-Stat3 Fold (AML blasts [2]; [7]): 0.06
- Mean Value of CRs, p-Stat5 Fold (AML blasts [2]; [7]): 0.08
- Mean Value of CRs, p-Stat5 TotalPhospho (AML blasts [2]; [7]): 2.58
- Mean Value of NRs, p-Stat1 Fold (AML blasts [2]; [7]): 0.36
- Mean Value of NRs, p-Stat3 Fold (AML blasts [2]; [7]): 0.96
- Mean Value of NRs, p-Stat5 Fold (AML blasts [2]; [7]): 1.07
- Mean Value of NRs, p-Stat5 TotalPhospho (AML blasts [2]; [7]): 3.91
- Med RFS ([3]; SWOG-9031, by arm (NS)): 9 mo; G-CSF: 8
- CR Rates ([3]; SWOG-9031, by arm, added to Ara-C/DNR induction, p = 0.89): G-CSF: 41%
- Med. OS ([3]; SWOG-9031, by arm, p = .71): G-CSF: 6 mos.

B2: IL-27: interleukin-27, cytokine modulator (protein, UniProt Q8NEV9 29-243; Q14213 21-229, looked up)
Interleukin-27 subunit alpha: FPRPPGRPQLSLQELRREFTVSLHLARKLLSEVRGQAHRFAESHLPGVNLYLLPLGEQLPDVSLTFQAWRRLSDPERLCFISTTLQPFHALLGGLGTQGRWTNMERMQLWAMRLDLRDLQRHLRFQVLAAGFNLPEEEEEEEEEEEEERKGLLPGALGSALQGPAQVSWPQLLSTYRLLHSLELVLSRAVRELLLLSKAGHSVWPLGFPTLSPQP
Interleukin-27 subunit beta: RKGPPAALTLPRVQCRASRYPIAVDCSWTLPPAPNSTSPVSFIATYRLGMAARGHSWPCLQQTPTSTSCTITDVQLFSMAPYVLNVTAVHPWGSSSSFVPFITEHIIKPDPPEGVRLSPLAERQLQVQWEPPGSWPFPEIFSLKYWIRYKRQGAARFHRVGPIEATSFILRAVRPRARYYVQVAAQDLTDYGELSDWSLPATATMSLGK
- Mean Value of CRs, p-CREB (AML blasts [1]; [5]): 1.25
- Mean Value of CRs, p-Stat1 (AML blasts [1]; [5]): 0.39
- Mean Value of CRs, p-Stat3 (AML blasts [1]; [5]): 1.01
- Mean Value of NRs, p-CREB (AML blasts [1]; [5]): 2.36
- Mean Value of NRs, p-Stat1 (AML blasts [1]; [5]): 0.81
- Mean Value of NRs, p-Stat3 (AML blasts [1]; [5]): 1.85
- Mean Value of CRs (AML blasts [1]; [8]): 1.40
- Mean Value of NRs (AML blasts [1]; [8]): 2.35
- Mean Value of CRs (AML blasts [1]; [9]): 0.41
- Mean Value of NRs (AML blasts [1]; [9]): 0.82
- Mean Value of CRs (AML blasts [1]; [6]): 1.07
- Mean Value of NRs (AML blasts [1]; [6]): 1.86
- Mean Value of CRs, p-Stat3 (AML blasts [2]; [10]): 0.22
- Mean Value of NRs, p-Stat3 (AML blasts [2]; [10]): 0.58
- Mean Value of CRs, p-Stat3 Fold (AML blasts [2]; [11]): −0.19
- Mean Value of NRs, p-Stat3 Fold (AML blasts [2]; [11]): 0.48
- Mean Value of CRs, p-Stat1 TotalPhospho (AML blasts [2]; [12]): 1.73
- Mean Value of CRs, p-Stat3 Fold (AML blasts [2]; [12]): 0.29
- Mean Value of CRs, p-Stat3 TotalPhospho (AML blasts [2]; [12]): 1.97
- Mean Value of NRs, p-Stat1 TotalPhospho (AML blasts [2]; [12]): 3.12
- Mean Value of NRs, p-Stat3 Fold (AML blasts [2]; [12]): 0.72
- Mean Value of NRs, p-Stat3 TotalPhospho (AML blasts [2]; [12]): 3.06
- Mean Value of CRs, p-Stat1 Fold (AML blasts [2]; [7]): 0.32
- Mean Value of CRs, p-Stat1 TotalPhospho (AML blasts [2]; [7]): 1.50
- Mean Value of CRs, p-Stat3 Fold (AML blasts [2]; [7]): −0.01
- Mean Value of CRs, p-Stat3 TotalPhospho (AML blasts [2]; [7]): 1.61
- Mean Value of NRs, p-Stat1 Fold (AML blasts [2]; [7]): 1.90
- Mean Value of NRs, p-Stat1 TotalPhospho (AML blasts [2]; [7]): 3.19
- Mean Value of NRs, p-Stat3 Fold (AML blasts [2]; [7]): 0.76
- Mean Value of NRs, p-Stat3 TotalPhospho (AML blasts [2]; [7]): 2.60
- Mean Value of CRs, p-Stat1 (AML blasts [2]; [13]): 1.66
- Mean Value of CRs, p-Stat3 (AML blasts [2]; [13]): 1.88
- Mean Value of NRs, p-Stat1 (AML blasts [2]; [13]): 2.63
- Mean Value of NRs, p-Stat3 (AML blasts [2]; [13]): 2.43
